Assay results: publication doi:10.1101/2021.09.01.458653 (bioRxiv, 2021)

B1: Ty1-CBD bifunctional fusion protein (nanobody Ty1 fused to a cellulose-binding domain) (VHH)
VHH: QVQLVETGGGLVQPGGSLRLSCAASGFTFSSVYMNWVRQAPGKGPEWVSRISPNSGNIGYTDSVKGRFTISRDNAKNTLYLQMNNLKPEDTALYYCAIGLNLSSSSVRGQGTQVTVSS
B2: Ty1 without CBD module (control protein) (VHH)
VHH: B1 VHH

Biological target: RBD-Fc (secreted recombinant receptor-binding domain of SARS-CoV-2 spike) (SARS-CoV-2, UniProt P0DTC2)
Test: immunoassay on cellulose filter paper discs

Binder | binding result
B1 | binds
B2 | binds
